B1: 310–18A5 (antibody, V domains shown)
VH: QVQLMQSGTEVKKPGSSVRVSCKASGSTFNSDAISWVRQAPGQGLEWMGGILGMFRTVNYAQRFQGRVTITADELMSTAYMELSGLRFEDTAVYYCARGDGYKPNFLRYWGQGTLITVSS
VL: TLSLSPGERATLSCRASQSVSSTSLAWYQQKFGQAPRLLIYGASNRATGIPDRFSGSGSGTDFTLTISRLEPEDFAVYYCQQYGNSLTFGGGTKVEIK
B2: 013–10 3F02 IgG K56N mutant (antibody, V domains shown)
VH: QVQLVESGGGVAQPGRSLRLSCAASGFTFSTYGMHWVRQAPGKGLEWVAVISYDGSNRYYAEILKDRFTISRDNSKNTVYLQMNSLRTEDTAVYFCAKEGRPLIVSGTHFFQFYYGMDVWGQGTTVTVSS
VL: DIQMTQSPSSLSASVGDRVTISCRASQSIGTYLNWYQQKPGKAPNLLIYGTSTLKSGVPSRFSGSGSGTDFTLTIGSLQPEDFATYFCQQSFSPPLTFGRGTRLEIK

Columns and labels:
H1 mini-HA (#4900) [1] = target: T1, H1 mini-HA (#4900) (Designed from influenza A virus …, stabilised); assay: BLI
[2] = target: H1N1 A/Solomon Island/3/2006 HA (Influenza A virus A/Solomon …, UniProt A7Y8I1, strain); assay: BLI
H1 mini-HA (#4900) [3] = target: T1, H1 mini-HA (#4900); assay: ELISA

Row | Binder | Kd (H1 mini-HA (#4900) [1]) [nM] | Kd [2] [nM] | fold weakening of binding affinity against WT (H1 mini-HA (#4900) [3]) [fold]
1 | B1 | 1 | 0.2 | –
2 | B2 | – | – | 10
